Results: US20180230200A1 (CITY OF HOPE, published 2018)

T1: UL128 expressed from MVA in BHK-21 cells (human cytomegalovirus, UniProt P16837 28-171)
T1 construct: whole, on cells
T1 sequence: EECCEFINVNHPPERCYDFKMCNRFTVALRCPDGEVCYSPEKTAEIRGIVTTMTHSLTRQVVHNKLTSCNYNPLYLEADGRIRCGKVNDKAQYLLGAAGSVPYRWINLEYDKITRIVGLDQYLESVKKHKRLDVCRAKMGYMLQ

B1: 54E11 (antibody, V domains shown)
VH: QIQLVQSGPELKKPGETVKISCKASGYTFTSYGMNWVKQAPGKGLKWMGWINTYTGEPTYADDFKGRFAFSLETSASTAYLQINNLKNEDTATYFCAREHYYGINPLLGCWGQGTTLTVSS
VL: DIQMTQTTSSLSASLGDRVTISCSASQGISNYLNWYQQKPDGTVKLLIYDTSSLHSGVPSRFSGSGSGTDYSLTISNLEPEDIATYYCQQYSKLPYTFGGGTKLEIK
notes: also called NAb 54E11
B2: 21F6 (antibody, V domains shown)
VH: B1 VH
VL: B1 VL
notes: also called NAb 21F6

What was measured:
[1] = target: T2, gH/gL/UL128/UL130/UL131A pentamer complex expressed from MVA-PC in BHK-21 cells (human cytomegalovirus, UniProt P12824 24-743; P16832 31-278; P16837 28-171; P16772 1-214; F5HET4 19-129); assay: FC competition, MVA-PC BHK-21; unlabelled row Ab; competitor: biotinylated 21F6
T2 construct: whole, on cells

[2] = target: T3, gH/gL/UL128/UL130 co-expressed from MVA in BHK-21 cells (human cytomegalovirus, UniProt P12824 24-743; P16832 31-278; P16837 28-171; P16772 1-214); assay: intracellular FC, MVA-infected BHK-21
T3 construct: whole, on cells
Protocol: (§1) NAb subunit specificity was evaluated by staining BHK-21 cells infected with different MVA recombinants. One or more vectors were used to co-infect BHK-21 at an MOI of 5. […] Four hours post infection cells were fixed and permeabilized using Cytofix/Cytoperm solution (BD Biosciences). NAbs (1 mg/ml) were diluted 1:500 in perm/wash buffer (BD) and added to the cells for 1 hour at 4° C. […] Cells were washed again and resuspended in PBS/0.1% BSA. Fifteen thousand events were collected using the Gallios Flow Cytometer (Beckman Coulter, Miami, Fla., USA) and analyzed with FlowJo Software (Tree Star, Ashland, Oreg., USA). Uninfected cells and cells infected with MVA-Venus were used as controls. GFP expression was analyzed for confirming MVA infection since all the constructs contain a GFP expression cassette (36, 62).
(§2) In order to determine the antigen specificity of the vaccine-derived NAbs, intracellular flow cytometry (FC) staining of permeabilized BHK-21 cells infected with MVA expressing single subunits or combinations of two or more subunits of the PC was evaluated.

[3] = target: T4, UL128/UL131A co-expressed from MVA in BHK-21 cells (human cytomegalovirus, UniProt P16837 28-171; F5HET4 19-129); assay: intracellular FC, MVA-infected BHK-21
T4 construct: whole, on cells
Protocol: as §1, §2

[4] = target: T5, gH/gL/UL130 co-expressed from MVA in BHK-21 cells (human cytomegalovirus, UniProt P12824 24-743; P16832 31-278; P16772 1-214); assay: intracellular FC, MVA-infected BHK-21
T5 construct: whole, on cells
Protocol: as §1, §2

[5] = target: T1, UL128 expressed from MVA in BHK-21 cells; assay: intracellular FC, MVA-infected BHK-21
Protocol: as §1, §2

[6] = target: T6, gH/gL co-expressed from MVA in BHK-21 cells (human cytomegalovirus, UniProt P12824 24-743; P16832 31-278); assay: intracellular FC, MVA-infected BHK-21
T6 construct: whole, on cells
Protocol: as §1, §2

[7] = target: T7, gH/gL/UL128 co-expressed from MVA in BHK-21 cells (human cytomegalovirus, UniProt P12824 24-743; P16832 31-278; P16837 28-171); assay: intracellular FC, MVA-infected BHK-21
T7 construct: whole, on cells
Protocol: as §1, §2

[8] = target: T8, UL131A expressed from MVA in BHK-21 cells (human cytomegalovirus, UniProt F5HET4 19-129); assay: intracellular FC, MVA-infected BHK-21
T8 construct: whole, on cells
Protocol: as §1, §2

[9] = target: T9, UL128/UL130 co-expressed from MVA in BHK-21 cells (human cytomegalovirus, UniProt P16837 28-171; P16772 1-214); assay: intracellular FC, MVA-infected BHK-21
T9 construct: whole, on cells
Protocol: as §1, §2

[10] = target: T10, gH/gL/UL131A co-expressed from MVA in BHK-21 cells (human cytomegalovirus, UniProt P12824 24-743; P16832 31-278; F5HET4 19-129); assay: intracellular FC, MVA-infected BHK-21
T10 construct: whole, on cells
Protocol: as §1, §2

[11] = target: T11, gH/gL/UL128/UL131A co-expressed from MVA in BHK-21 cells (human cytomegalovirus, UniProt P12824 24-743; P16832 31-278; P16837 28-171; F5HET4 19-129); assay: intracellular FC, MVA-infected BHK-21
T11 construct: whole, on cells
Protocol: as §1, §2

[12] = target: T12, gH expressed from MVA in BHK-21 cells (human cytomegalovirus, UniProt P12824 24-743); assay: intracellular FC, MVA-infected BHK-21
T12 construct: whole, on cells
Protocol: as §1, §2

[13] = target: T13, UL130 expressed from MVA in BHK-21 cells (human cytomegalovirus, UniProt P16772 1-214); assay: intracellular FC, MVA-infected BHK-21
T13 construct: whole, on cells
Protocol: as §1, §2

[14] = target: T2, gH/gL/UL128/UL130/UL131A pentamer …; assay: FC competition, MVA-PC BHK-21; unlabelled row Ab; competitor: biotinylated 1B2
[15] = target: T2, gH/gL/UL128/UL130/UL131A pentamer …; assay: FC competition, MVA-PC BHK-21; unlabelled row Ab; competitor: biotinylated 12E2
[16] = target: T2, gH/gL/UL128/UL130/UL131A pentamer …; assay: FC competition, MVA-PC BHK-21; unlabelled row Ab; competitor: biotinylated 18F10
[17] = target: T2, gH/gL/UL128/UL130/UL131A pentamer …; assay: FC, biotinylated NAb titrated on MVA-PC-infected BHK-21 (cell surface PC)
[18] = target: gH/gL/UL128/UL130/UL131A pentamer complex (PC) of HCMV strain TB40/E virus (human cytomegalovirus strain TB40/E); assay: cell-based or functional assay
[19] = target: gH/gL/UL128/UL130/UL131A pentamer complex (PC) of HCMV strain TR virus (human cytomegalovirus strain TR); assay: cell-based or functional assay
[20] = target: T2, gH/gL/UL128/UL130/UL131A pentamer …; assay: FC competition, MVA-PC BHK-21; unlabelled row Ab; competitor: biotinylated 13B5
[21] = target: T2, gH/gL/UL128/UL130/UL131A pentamer …; assay: FC competition, MVA-PC BHK-21; unlabelled row Ab; competitor: biotinylated 54E11

Row | Binder | Binding Inhibition (%) [1] [%] | binding result [2] | binding result [3] | binding result [4] | binding result [5] | binding result [6] | binding result [7] | binding result [8] | binding result [9] | binding result [10] | binding result [11] | binding result [12] | binding result [13] | Binding Inhibition (%) [14] [%] | Binding Inhibition (%) [15] [%] | Binding Inhibition (%) [16] [%] | EC50 [17] [nM] | IC50, inhibition of TB40/E cell-to-cell spread in ARPE-19 [18] [mg/L] | IC50, neutralization of TB40/E infection of ARPE-19 [18] [mg/L] | IC50, neutralization of TB40/E infection of CTB [18] [mg/L] | other results
1 | B1 | 100 | no binding | no binding | no binding | no binding | no binding | no binding | no binding | no binding | no binding | no binding | no binding | no binding | 0 | 0 | 0 | 0.51 | 17 | 0.0034 | 0.0249 | IC50, neutralization of TB40/E infection of HUVEC [18]: 0.0046 mg/L; IC50, neutralization of TB40/E infection of MRC-5 [18]: > 25 mg/L; IC50, inhibition of TR cell-to-cell spread in ARPE-19 [19]: 18 mg/L; IC50, neutralization of TR infection of ARPE-19 [19]: 0.0034 mg/L; IC50, neutralization of TR infection of HUVEC [19]: 0.0059 mg/L; IC50, neutralization of TR infection of MRC-5 [19]: > 25 mg/L; Binding Inhibition (%) [20]: 0%; Binding Inhibition (%) [21]: 100%
2 | B2 | 100 | no binding | no binding | no binding | no binding | no binding | no binding | no binding | no binding | no binding | no binding | no binding | no binding | 0 | 0 | 0 | 0.62 | 18 | 0.0026 | 0.0307 | IC50, neutralization of TB40/E infection of HUVEC [18]: 0.004 mg/L; IC50, neutralization of TB40/E infection of MRC-5 [18]: > 25 mg/L; IC50, inhibition of TR cell-to-cell spread in ARPE-19 [19]: 19 mg/L; IC50, neutralization of TR infection of ARPE-19 [19]: 0.0035 mg/L; IC50, neutralization of TR infection of HUVEC [19]: 0.0059 mg/L; IC50, neutralization of TR infection of MRC-5 [19]: > 25 mg/L; Binding Inhibition (%) [20]: 0%; Binding Inhibition (%) [21]: 100%
